Changes are numbered by the printed parent chain.
T1: Human TNFR2 recombinant protein (Sino 10417-H08H) (human, UniProt P20333 23-257)
T1 construct: also called hTNFR2 (His tag)
T1 sequence (looked up): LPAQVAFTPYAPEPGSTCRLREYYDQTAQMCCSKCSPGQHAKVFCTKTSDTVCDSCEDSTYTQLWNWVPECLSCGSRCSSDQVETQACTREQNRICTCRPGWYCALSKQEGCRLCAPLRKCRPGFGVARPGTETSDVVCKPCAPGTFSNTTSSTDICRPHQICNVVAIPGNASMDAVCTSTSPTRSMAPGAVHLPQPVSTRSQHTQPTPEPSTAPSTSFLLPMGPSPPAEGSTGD

T2: cynomolgus TNFR2 (Sino 90102-C08H) (cynomolgus, UniProt A0A2K5VET2 132-366)
T2 construct: also called CynoTNFR2 (His tag)
T2 sequence: T1 sequence (looked up) with S16G, S36P, P117Q, N164H, E210A, S216G, M223V

T3: human TNFR2 on the cell surface (CHO-TNFR2 cells; human Treg cells) (human, UniProt P20333 23-461)
T3 construct: whole, on cells; The assay field of each row says which cells; also called TNFR2-CHO cell; TNFR2 on Treg cells
T3 sequence (looked up): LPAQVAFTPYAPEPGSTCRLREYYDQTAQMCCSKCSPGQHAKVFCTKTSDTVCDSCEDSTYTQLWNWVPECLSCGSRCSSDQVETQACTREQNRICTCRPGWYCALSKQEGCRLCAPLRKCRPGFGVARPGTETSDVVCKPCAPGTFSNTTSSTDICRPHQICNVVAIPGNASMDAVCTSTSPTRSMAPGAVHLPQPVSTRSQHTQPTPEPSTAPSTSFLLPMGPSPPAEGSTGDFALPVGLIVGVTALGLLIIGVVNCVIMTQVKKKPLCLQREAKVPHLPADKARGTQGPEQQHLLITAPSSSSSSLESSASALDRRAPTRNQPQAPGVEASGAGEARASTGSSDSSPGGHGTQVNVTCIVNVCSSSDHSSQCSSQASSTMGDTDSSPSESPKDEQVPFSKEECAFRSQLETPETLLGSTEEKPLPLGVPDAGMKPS

T4: human TNFR2 (Novoprotein, Catalog No. C830) (human, UniProt P20333 23-257, limits assumed)
T4 construct: construct not described; also called TNFR2 protein
T4 sequence (looked up): T1 sequence (looked up)

B1: TNFR2 antibody #309 (antibody, V domains shown)
VH: EVQLQESGAELVKPGASVKLSCKASGYTFTSYWIHWVKLRPGQGFEWIGEINPNNGGTDYNEKFKRKATLTVDKSSSTAYMELSSLTSEDSAIYYCTIDSMITTTWFAYWGQGTTVTVSS
VL: EIVMTQSQKLMSTVVGDRVSVTCKASQNVGTNVAWFQQKPGQSPKALINSASYRYSGVPDRFTGSGSGTDFTLTISSVQSEDLAEYFCQQYNSYPFTFGSGTKLEIK
B2: TNFR2 antibody #088 (antibody, V domains shown)
VH: EVQLQESGGGLVQPGGSLNLSCAASGFAFSTYDLSWVRQTPGKRLEWVAYINNGGISTYYSDTVKGRFTITRDNAKNTLYLQMSSLKSEDTAMYYCVRGPFYGSANYFDYWGQGTTVTVSS
VL: DILMTQSPASLSLFVGETVTITCRASENIYSNLAWYQQKQGKSPQLLVYDATKLAEGVPSRFSGSESGTQYSLKINSLQSEDFGTYYCQHFWVTPWTFGGGTKLEIK
B3: TNFR2 antibody #365 (antibody, V domains shown)
VH: EVQLQESGPGLVQPSQSLSITCTVSGFSLTSYGVHWVRQSPGKGLEWLGLIWSDGSPDYSAAFISRLSINKDNSKSQVFFKMNSLQADDTAIYYCARNDDGGDYVMDYWGQGTTVTVSS
VL: EIVLTQSPALMSASPGEKVTMTCSASSSVSYMYWYQQKPRSSPKPWIYLTSNLASGVPARFSGSGSGTSYSLTISSMEAEDAATYYCQQWTSNPLTFGAGTKLEIK
B4: TNFR2 antibody #226 (antibody, V domains shown)
VH: EVQLQESGAELVRPGASVKLSCKASGYSFTNYWMNWVKQRPGQGLEWIGMIHPSDSETRLNQKFKDKATLTVDKSSSTAYMQLSSPTSEDSAVYYCARGEGLGAARSVSMDYWGQGTTVTVSS
VL: DIQMTQSPSSLSASLGDRVTISCRASQDISNYLNWYQQKPDGTVKVLIYYTALLHSGVPSRFSGSGSGTDYSLTISNLEQEDIATYFCQQGNTLPWTFGGGTKLEIK

What follows are binders tested against T1, Human TNFR2 recombinant protein (Sino …) (assay: ELISA, coated antigen 0.5 ug/ml, antibody 12 ng/ml).

Row | ELISA OD [OD] | Binder
1 | 1.9 | B1
2 | 1.31 | B2

These binders were tested against T2, cynomolgus TNFR2 (Sino 90102-C08H) (assay: ELISA, coated antigen 0.5 ug/ml, antibody 12 ng/ml).

Row | ELISA OD [OD] | Binder
3 | 2.27 | B1
4 | 1.44 | B2

What follows are binders tested against T3, human TNFR2 on the cell surface … (assay: flow cytometry, blocking of TNFα-biotin on CHO-TNFR2 cells).
Experimental: (§1) CHO cells that stably overexpressed human TNFR2 were used for experiments. The cells were resuscitated and passaged until in good state, and the expression level of human TNFR2 on the cells was assessed by FACS. Compared to the isotype control, the assay could be carried out when the fold change of mean fluorescence intensity (MFI) was more than 100 times.
(§2) CHO-TNFR2 cells were digested, washed twice with DPBS and stained with Live/Dead (L/D) at room temperature for 20 min, and then seeded at 1×10⁵ cells/50 μl/well. […] The diluted antibodies were added 50 μl/well into wells pre-seeded with cells, and gently blown and mixed to make the final concentrations of the antibodies to 20, 6.67, 2.22, 0.74, 0.247, 0.08, 0.027 and 0 nM, respectively followed by incubation at 4° C. for 30 min. […] After washing twice with the staining buffer, 100 μl/well of PE-streptavidin was added and incubated at 4° C. for 30 min. After additional washing with the staining buffer twice, 150 μl resuspended cells was analyzed using an flow cytometry. Taking the logarithmic value of the antibody concentrations as abscissa and the corresponding MFI value as ordinate, the inhibition curve of the antibody was drawn, and the IC50 value was calculated by four parameters fitting.

Row | IC50 [µg/mL] | Binder
5 | 0.116 | B1
6 | 0.185 | B2
7 | 0.041 | B3
8 | 0.06 | B4

Each binder was assayed against T3, human TNFR2 on the cell surface … (assay: cell-based or functional assay).

Row | % AUC versus positive control (#52), ADCC against Treg [%] | Binder
9 | 56 | B1
10 | 45.3 | B2
11 | 70.7 | B3
12 | 69 | B4

These binders were tested against T4, human TNFR2 (Novoprotein, Catalog No. …) (assay: blocking ELISA, TNFα-biotin on coated human TNFR2; 002# OD / antibody OD x 100).
Experimental: A microplate was pre-coated with 100 μl/well of 1 μg/ml human TNFR2 (Novoprotein, Catalog No. C830). […] After washing the plate, a Streptavidin-HRP working solution (1:10000 dilution) was added at 100 μl/well, and incubated with shaking at room temperature for 40 min. The plate was washed again, the HRP substrate TMB was added for color development, the termination solution was added to terminate the reaction, and the microplate reader was used to read the absorption value.

Row | % to 002# OD (2 nM) [%] | % to 002# OD (20 nM) [%] | Binder
13 | 75.9 | 96.6 | B1
14 | 69.3 | 94.1 | B2
15 | 124 | 120 | B3
16 | 95.7 | 105 | B4

The binders below were run against T1, Human TNFR2 recombinant protein (Sino …) (assay: SPR Biacore, antibody on Protein A chip, TNFR2 analyte).
Experimental: (§3) In this experiment, Protein A chip was used, and the time required for the chip to capture the diluted antibody was determined by manual run, so that the Rmax of the saturated binding antigen was 50 RU. Human TNFR2 (Sino 10417-H08H) and cynomolgus TNFR2 (Sino 90102-C08H) were diluted to 32, 16, 8, 4, 2 nM. The affinity of antibody and antigen was measured by multi-cycle kinetics. In each cycle, anti-TNFR2 antibodies were injected prior to the injection of gradient concentrations of TNFR2 protein allowing the occurrence of antibody-antigen association and dissociation. After each cycle, the Protein A chip was regenerated with Glycine pH1.5 (to remove the protein on the chip). BIAcore T200 analysis software was used to calculate the affinity KD of antibody binding to antigen.

Row | Kd [nM] | koff [s⁻¹] | kon [M⁻¹ s⁻¹] | Binder
17 | 1.44 | 0.000748 | 519000 | B1
18 | 0.107 | 5.46e-05 | 510000 | B2
19 | 0.952 | 0.00209 | 2.2e+06 | B3
20 | 0.194 | 7.14e-05 | 369000 | B4

Each binder was assayed against T2, cynomolgus TNFR2 (Sino 90102-C08H) in the same assay as above.
Experimental: as §3

Row | Kd [nM] | koff [s⁻¹] | kon [M⁻¹ s⁻¹] | Binder
21 | 2.48 | 0.00212 | 854000 | B1
22 | 0.286 | 0.000172 | 601000 | B2
23 | 0.752 | 0.00308 | 4.1e+06 | B3
24 | 0.577 | 0.000318 | 551000 | B4

The binders below were run against T3, human TNFR2 on the cell surface … (assay: flow cytometry, blocking of TNFα-biotin on CHO-TNFR2 cells; against 002#).
Experimental: as §1, §2

Row | IC50 Relative Value % [%] | Binder
25 | 70.7 | B1
26 | 41.5 | B2
27 | 232 | B3
28 | 129 | B4

Target: T3, human TNFR2 on the cell surface …
Test: cell-based or functional assay
Remark: another data set of the same source

Row | proliferation inhibition (TNFα-induced Treg cell proliferation, against anti-Hel) [%] | Binder
29 | 6.9 | B2
30 | 11 | B3
31 | 10.3 | B4
